Results taken from patent US20100222256A1 (BIOKINE THERAPEUTICS, published 2010).
Bridges are numbered along the chain shown (N, C = ends). Where no end group is shown, it is not given here. [ ]: non-standard residue; d: D form. Cit = NC(=O)NCCC[C@H](N)C(=O)O; Nal = naphthylalanine

B1: TC14011 (peptide)
peptide: RRXCYXKXPYRXCR
modifications: Nal at 3; Cit at 6; D-Cit at 8; Cit at 12; C-terminal OH; Cys4-Cys13 disulfide (cyclised by air oxidation)
B2: TC14005 (peptide)
peptide: RRXCYRKXPYRXCR
modifications: not fully specified; Nal at 3; D-citrulline at 8; L-citrulline at 12; C-terminal OH; Cys4-Cys13 disulfide (cyclised by air oxidation)
B3: TC14020 (peptide)
peptide: RRXCYRKXPYXXCR
modifications: Nal at 3; D-Cit at 8; Cit at 11 and 12; C-terminal OH as printed; Cys4-Cys13 disulfide (cyclised by air oxidation)
B4: TC14012 (peptide)
peptide: RRXCYXKXPYRXCR
modifications: Nal at 3; L-citrulline at 6; D-citrulline at 8; L-citrulline at 12; C-terminal amide (NH2); Cys4-Cys13 disulfide (cyclised by air oxidation)
B5: TN14005 (peptide)
peptide: RRXCYRKXPYRXCR
modifications: Nal at 3; D-Cit at 8; Cit at 12; C-terminal amide (NH2); Cys4-Cys13 disulfide (cyclised by air oxidation)
B6: TC14018 (peptide)
peptide: XRXCYRKXPYRXCR
modifications: Cit at 1; Nal at 3; D-Cit at 8; Cit at 12; C-terminal amide (NH2); Cys4-Cys13 disulfide (cyclised by air oxidation)

Biological target: CXCR4 ligand
Experiment: cell-based or functional assay

Binder	EC50 (nM): anti-HIV activity, concentration where MT-4 cell death by HIV-1 (IIIB) infection is inhibited by 50% (MTT method) [nM]
B1	0.5
B2	4
RR[Nal]CY[Cit]K[dK]PYR[Cit]CR-NH2 (disulfide 4-13) [TN14003]	0.6
B3	2.7
B4	0.4
RR[Nal]CY[Cit]K[dK]PYR[Cit]CR-OH (disulfide 4-13) [TC14003]	2.8
B5	4.6
B6	1.2
